# According to patent US20170306002A1 (UNITED STATES OF AMERICA AS REPESENTED BY THE SECRETARY …, published 2017):
# Target: NA of A/Bethesda/NIH107-D31/2009 (pH1N1, H275Y) (influenza A virus …)
# Assay: cell-based or functional assay
binder,measurement,value
"mAb CD6 (whole IgG) (antibody, V domains shown) VH: QVKLQESGGGLVQPKGSLKLSCAASGFTFNTYAMNWVRQAPGKGLEWVARIRSKSNNYATFYADSVKDRFTISRDDSQSMLYLQMHNLKTDDTAMYYCVRPSIYYYASGYLDVWGAGTTVTVSS VL: QIVLSQSPAILSASPGEKVTMTCRTSSSVSYMHWYQQKPGSSPKPWIYATSNLASGVPFRFSGSGSGTSYSLTISRVEAEDAATYYCQQWNSNPPTFGGGTKLEIKR","IC50, inhibition of NA activity in ELLA (fetuin substrate)",29 ng/mL
